19 molecules from US11141452 (dated 2021) can be followed below.

Test in all cases: competition
The target in test [1] is T1, rat NK1 receptor (rat, UniProt P14600).
T1 chain: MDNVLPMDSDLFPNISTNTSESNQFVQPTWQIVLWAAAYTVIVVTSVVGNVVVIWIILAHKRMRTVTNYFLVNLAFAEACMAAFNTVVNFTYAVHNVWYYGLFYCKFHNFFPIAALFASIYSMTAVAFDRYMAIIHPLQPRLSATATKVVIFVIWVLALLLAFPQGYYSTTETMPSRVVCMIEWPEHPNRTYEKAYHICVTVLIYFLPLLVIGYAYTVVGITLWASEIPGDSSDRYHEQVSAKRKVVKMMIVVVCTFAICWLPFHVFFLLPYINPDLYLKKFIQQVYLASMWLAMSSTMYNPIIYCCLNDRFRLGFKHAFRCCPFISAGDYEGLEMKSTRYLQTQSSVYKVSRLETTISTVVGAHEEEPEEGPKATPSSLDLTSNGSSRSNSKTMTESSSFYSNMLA

Test [2] addresses mu opioid receptor (MOR) (UniProt P35372).
Test [3] concerns the target T2, delta opioid receptor (DOR) (UniProt P41143).
T2 chain: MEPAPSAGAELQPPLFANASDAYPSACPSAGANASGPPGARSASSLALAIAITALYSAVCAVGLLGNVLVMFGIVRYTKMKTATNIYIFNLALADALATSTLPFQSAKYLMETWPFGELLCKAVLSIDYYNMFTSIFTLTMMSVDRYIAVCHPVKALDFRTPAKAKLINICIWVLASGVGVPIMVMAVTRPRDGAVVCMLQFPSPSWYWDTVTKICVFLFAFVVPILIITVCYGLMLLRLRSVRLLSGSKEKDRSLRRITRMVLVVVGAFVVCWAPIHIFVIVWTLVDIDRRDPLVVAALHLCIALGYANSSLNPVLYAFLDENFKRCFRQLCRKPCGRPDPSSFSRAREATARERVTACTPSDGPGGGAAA

For test [4], the target named is T3, human NK1 receptor (human, UniProt P25103).
T3 chain: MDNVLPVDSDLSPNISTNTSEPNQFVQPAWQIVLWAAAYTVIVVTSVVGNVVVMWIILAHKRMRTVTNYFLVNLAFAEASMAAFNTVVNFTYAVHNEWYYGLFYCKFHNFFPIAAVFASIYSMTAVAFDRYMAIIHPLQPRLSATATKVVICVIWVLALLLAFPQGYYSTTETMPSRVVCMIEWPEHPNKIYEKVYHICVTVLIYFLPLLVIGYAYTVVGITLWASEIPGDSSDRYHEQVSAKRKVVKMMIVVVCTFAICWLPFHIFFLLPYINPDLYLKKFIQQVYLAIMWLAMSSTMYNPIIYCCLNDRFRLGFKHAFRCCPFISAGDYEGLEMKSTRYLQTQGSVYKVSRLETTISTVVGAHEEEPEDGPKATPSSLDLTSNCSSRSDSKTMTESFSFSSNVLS

Test [5] addresses T1, rat NK1 receptor.
Test [6] addresses mu opioid receptor (MOR) (UniProt P35372). The source holds these as a separate data set.
In test [7] the target is T2, delta opioid receptor (DOR).
For test [8], the target named is T1, rat NK1 receptor.
Test [9] concerns the target T3, human NK1 receptor.
The target in test [10] is T3, human NK1 receptor.
The target in test [11] is T1, rat NK1 receptor.
For test [12], the target named is mu opioid receptor (MOR) (UniProt P35372). The source holds these as a separate data set.
The target of test [13] is T3, human NK1 receptor.
Test [14] addresses T2, delta opioid receptor (DOR).
The target of test [15] is T1, rat NK1 receptor.
The target in test [16] is T3, human NK1 receptor.
In test [17] the target is mu opioid receptor (MOR) (UniProt P35372). This is another data set of the same source.
Test [18] deals with T2, delta opioid receptor (DOR).

Where two headings read alike, the source gives them in different places. Non-standard residues stand in square brackets, D forms with d. No end group written: not given here. *: point of attachment. NH(3,5-(CF3)2-benzyl) = FC(F)(F)c1cc(CN*)cc(C(F)(F)F)c1; NMePhe(4-F) = CN[C@@H](Cc1ccc(F)cc1)C(=O)O; Phe(4-F) = N[C@@H](Cc1ccc(F)cc1)C(=O)O; Dmt = Cc1cc(O)cc(C)c1C[C@H](N)C(=O)O; NMeF = CN[C@@H](Cc1ccccc1)C(=O)O; Orn = NCCC[C@H](N)C(=O)O; Dab = NCC[C@H](N)C(=O)O; NHBn = c1ccc(CN*)cc1

Sequence of mu opioid receptor (MOR) (P35372 whole entry): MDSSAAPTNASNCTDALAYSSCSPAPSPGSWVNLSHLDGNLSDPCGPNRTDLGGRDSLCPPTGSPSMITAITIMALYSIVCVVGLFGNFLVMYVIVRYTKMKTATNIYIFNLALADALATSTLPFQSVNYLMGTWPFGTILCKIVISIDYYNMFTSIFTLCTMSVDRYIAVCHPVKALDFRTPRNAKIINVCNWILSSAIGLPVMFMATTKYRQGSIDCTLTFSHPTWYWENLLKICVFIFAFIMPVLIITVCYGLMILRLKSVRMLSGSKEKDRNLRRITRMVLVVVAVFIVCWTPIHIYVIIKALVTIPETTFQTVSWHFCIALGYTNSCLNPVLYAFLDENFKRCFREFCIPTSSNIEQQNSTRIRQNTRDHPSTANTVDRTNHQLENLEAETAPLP

B1: AKG115 (peptide)
chain: XAGFPLW
modifications: Dmt1, D-Ala2, NMePhe4; C-terminal NH-Bn(3',5'-(CF3)2)
By Ki is commonly meant a measure of affinity in units of concentration, obtained from inhibition or displacement. As for B1, the Ki in [1] worked out at 48.3 nM; in test [2], 1 nM; in test [3], 5 nM.

B2: AKG222 (peptide)
chain: YPFFPLW
Consider B2, for which the Ki turned out to be 4.19 nM in test [4] and 32.4 nM in [5].

B3: AKG102 (peptide)
chain: Y[dA]GF[dN]PLW-NHBn
For B3, the Ki in test [6] stood at 90 nM; in test [7], 54 nM; in test [8], 133 nM; in [9], 2.26 nM.

B4: AKG117 (peptide)
chain: Y[dA]G[NMeF]PLW-{NH(3,5-(CF3)2-benzyl)}
On to B4, for which the Ki in [1] stood at 61.1 nM; in [10], 3.35 nM; in test [2], 27 nM; in test [3], 237 nM.

B5: AKG127 (peptide)
chain: XAGFPLW
modifications: Dmt1, D-Ala2, Phe(4-F)4; C-terminal NH-Bn(3',5'-(CF3)2)
Turning to B5, the Ki is 29.4 nM in test [1], 0.88 nM in test [10], 1 nM in test [2] and 1 nM in test [3].

B6: AKG104 (peptide)
chain: Y[dA]GFNPLW
modifications: not fully specified (C-terminus)
B6: the Ki in test [6] stood at 51 nM; in test [7], 17 nM; in test [8], 20.2 nM; in test [9], 1.16 nM.

B7: AKG191 (peptide)
chain: XAGFPLW
modifications: Dmt1, D-Ala2, Phe(4-Cl)4; C-terminal NH-Bn(3',5'-(CF3)2)
In the case of B7, the Ki in [1] is 26.5 nM; in test [2], 2 nM; in test [3] it was 5 nM.

B8: AKG105 (peptide)
chain: Y[dA]GFQPLW
modifications: not fully specified (C-terminus)
As for B8, the Ki in [6] turned out to be 38 nM; in [7], 9 nM; in test [8], 12.5 nM; in test [9], 0.92 nM.

B9: AKG129 (peptide)
chain: Y[dA]G[NMeF]QPLW
modifications: not fully specified (C-terminus)
B9: the figures for the Ki in test [6], in test [7] and in test [9] were 7 nM, 1 nM and 0.83 nM, respectively.

B10: AKG172 (peptide)
chain: Y[dA]G[NMeF][Dab]PLW-NHBn
Turning to B10, the Ki in [11] was found to be 8.24 nM; in test [12], 8 nM; in test [13] it was 3.05 nM; in test [14] it was 100 nM.

B11: AKG226 (peptide)
chain: YPFFPLW
For the molecule B11, the Ki is 5.9 nM in test [4] and 31.7 nM in test [5].

B12: AKG118 (peptide)
chain: [Dmt][dA]FGYPLW
modifications: not fully specified (C-terminus)
As to B12, the Ki worked out at 25.4 nM in test [15], 2.34 nM in test [16], 1 nM in test [17] and 3 nM in test [18].

B13: AKG116 (peptide)
chain: XAGFPLW
modifications: Dmt1, D-Ala2; C-terminal NH-Bn(3',5'-(CF3)2)
Take B13: the Ki in test [1] was 26.9 nM; in test [10], 1.4 nM; in [2], 3 nM; in [3], 1 nM.

B14: AKG190 (peptide)
chain: Y[dA]G[Phe(4-F)]PLW-{NH(3,5-(CF3)2-benzyl)}
Consider B14, for which the Ki worked out at 34.4 nM in test [1], 5.61 nM in test [10], 4 nM in [2] and 0.2 nM in [3].

B15: AKG173 (peptide)
chain: Y[dA]G[NMeF][Orn]PLW
modifications: not fully specified (C-terminus)
Regarding B15, the Ki is 65.2 nM in [11], 5 nM in test [12], 15.5 nM in [13] and 0.05 nM in test [14].

B16: AKG224 (peptide)
chain: YPFFPLW
As to B16, the Ki in test [4] turned out to be 3.39 nM; in test [5], 33.7 nM.

B17: AKG143 (peptide)
chain: Y[dA]G[NMePhe(4-F)]QPLW-NHBn
Regarding B17, the Ki in test [6] turned out to be 2 nM; in test [7] it was 0.7 nM; in test [8], 21.7 nM; in [9] it was 3.2 nM.

B18: AKG103 (peptide)
chain: Y[dA]GF[dQ]PLW
modifications: not fully specified (C-terminus)
For B18, the values for the Ki in [6], in test [8] and in test [9] were 116 nM, 106 nM and 2.71 nM, respectively.

B19: AKG142 (peptide)
chain: Y[dA]G[Phe(4-F)]QPLW-NHBn
For the molecule B19, the values for the Ki in test [6], in test [7] and in [9] were 8 nM, 2 nM and 5.71 nM, respectively.
